Test results taken from US11370846B2, “Compositions and methods to regulate Renalase in the treatment of cancer” (Yale University, priority 2014, dated 2022).
Entries after “also recorded” stand apart in the source; their conditions may differ. Read-outs that look alike come from different tables or passages of the source.

What was measured:
[1] = test system: A375.S2 melanoma cells; experiment: Cell viability, WST-1, A375.S2 melanoma cells; assay type: cell-based, human; conditions: A375.S2, 72 hrs
Protocol: (§1) FIG. 19A through FIG. 19D are a series of images and charts showing that inhibition of RNLS signaling is cytotoxic to melanoma cells in vitro. […] FIG. 19B comprises two charts depicting relative cell viability: Left panel: Cells were treated with indicated antibodies for 72 hrs and cell viability was determined using WST-1; m28-RNLS (also known as 1D-28-4), m37-RNLS (also known as 1D-37-10): monoclonal antibodies raised against RNLS peptide RP220; Right panel: A375.S2 cells treated with increasing doses of m28-RNLS for 72 hrs and cell viability determined with a WST-1 assay; n=6, * indicates p<0.05 and ** indicates p<0.005. FIG. 19C comprises representative photos of A375.S2, SkMe128, and SkMe15 after 72 hrs incubation with either control rabbit IgG or m28-RNLS. FIG. 19D is a chart depicting relative cell viability, comprising amino acid (AA) sequence of RNLS peptide antagonist (RP220A).
(§2) For additional studies, cell viability was determined using WST-1 reagent (Roche Diagnostics, Indianapolis, Ind., USA) according to the manufacturers' instruction. Absorbances were read using a microplate reader (Power Waves XS, BioTek Instruments, Winooski, Vt., USA).

[2] = test system: melanoma cells; experiment: Melanoma cell lines in culture, viability/growth; assay type: cell-based, human
Protocol: as §1, §2

[3] = test system: BxPC3 xenografted tumors; experiment: BxPC3 pancreatic xenograft in athymic nude mice; assay type: in vivo, mouse
Protocol: Immunohistochemistry was performed as described previously (Guo et al., 2012 Cancer Science. 103(8):1474-80). Briefly tumor tissues were formalin-fixed, paraffin-embedded and cut into 5-μm sections on glass slides. The slides were de-paraffinized and hydrated, followed by antigen retrieval in a pressure cooker containing 10 mM sodium citrate, pH6 buffer. The sections were blocked in 3% hydrogen peroxide for 30 min and 2.5% normal horse serum in PBS/0.1% Tween20 for 1 h followed by incubation with primary antibody and isotype control IgG overnight at 4° C. […]
Xenograft tumors were established by subcutaneous injection of BxPC3 cells (2×10^6 in 100 μl of PBS, pH 7.6). […] Tumor size was measured with digital calipers and volume was calculated according to the formula (length×width)×π/2. […] These animals received no further treatments, and tumor size and volume were measured for up to 30 days.
At the end of the study, the mice were sacrificed, the tumors were excised and immediately snap-frozen in liquid nitrogen and stored at −80° C. […] Sections were examined by light microscopy and the apoptosis index was determined by counting >1000 cells in 5 randomly selected high-power fields (×200 magnification).

[4] = test system: Panc1 cells; experiment: FACS apoptosis and cell cycle analysis of Panc1 cells; assay type: cell-based, human; conditions: 30 μg/ml
Protocol: FIG. 26A through FIG. 26E are a series of images and charts showing that inhibition of RNLS signaling induces apoptosis and cell cycle arrest. […] FIG. 26B is a chart depicting FACS analysis of Panc1 cells in culture treated with either m28-RNLS (30 μg/ml) or 100 μM etoposide (positive control) for 4 days; n=3, * indicates p<0.05. FIG. 26C is an image showing Panc1 cells treated with polyclonal ab31291 or with goat IgG as a negative control, and cells lysates probed for p38 and Bax activation by western blot. […] FIG. 26E is a chart showing the effect of m28-RNLS on cell cycle of Panc1 cells determined by FACS analysis; green curve: no treatment, purple curve: rabbit IgG, red curve: m28-RNLS 30 μg/ml.
For cell cycle analysis, cultured cells were dissociated using 10 mM EDTA, fixed with ice-cold 70% ethanol, digested with RNAse A, and stained with propidium iodide. Propidium staining was detected using a BD FACSCalibur flow cytometer (BD Biosciences, San Jose, Calif., USA), and analyzed using CellQuest software.
Apoptosis was detected and quantified as previously done (Guo et al., 2012 Cancer Science. 103(8):1474-80). […] At least 20,000 events were collected on a BD FACSCalibur flow cytometer (BD Biosciences, San Jose, Calif., USA) and analyzed using CellQuest software.

[5] = test system: STAT3; experiment: STAT3 phosphorylation in Panc1 cells by western blot; assay type: cell-based, human; conditions: antibody treatment for up to 4 days; listed as m28-RNLS
Description: FIG. 27A through FIG. 27E are a series of images and charts showing the interaction between RNLS and STAT3, and the mechanistic model of inhibition by m28-RNLS. FIG. 27A is an image showing activation of STAT3 by RNLS in Panc1 cells; Panc1 cells in culture treated with either BSA or RNLS, and STAT3 phosphorylation assessed by western blot; p-Ser^727-STAT3: phosphorylation at serine 727, p-Y^705-STAT3: phosphorylation at tyrosine 705; representative study. FIG. 27B is a chart depicting the quantification of STAT3 phosphorylation with RNLS; signals normalized to total STAT3; n=3, *=P<0.05. […] FIG. 27D is a chart showing the quantification of STAT3 phosphorylation with m28-RNLS; signals normalized to GAPDH loading control; n=3, *=P<0.05. FIG. 27E depicts the proposed mechanistic model for antitumor activity of m28-RNLS.

B1: 1D-28-4: rabbit anti-renalase monoclonal raised against peptide RP-220 (antigen 1D); heavy chain SEQ ID NO:9, light chain SEQ ID NO:10 (antibody)
heavy: METGLRWLLLVAVLKGVQCQSVEESGGRLVTPGTPLTLTCTVSGFSLSSFAVGWVRQAPGKGLEYIGIISSVGITRYASWAAGRFTISKTSTTVDLKITSPTTEDTATYFCARYGYSGDVNRLDLWGQGTLVTVSSGQPKAPSVFPLAPCCGDTPSSTVTLGCLVKGYLPEPVTVTWNSGTLTNGVRTFPSVRQSSGLYSLSSVVSVTSSSQPVTCNVAHPATNTKVDKTVAPSTCSKPTCPPPELLGGPSVFIFPPKPKDTLMISRTPEVTCVVVDVSQDDPEVQFTWYINNEQVRTARPPLREQQFNSTIRVVSTLPIAHQDWLRGKEFKCKVHNKALPAPIEKTISKARGQPLEPKVYTMGPPREELSSRSVSLTCMINGFYPSDISVEWEKNGKAEDNYKTTPAVLDSDGSYFLYSKLSVPTSEWQRGDVFTCSVMHEALHNHYTQKSISRSPGK
light: MDTRAPTQLLGLLLLWLPGATFAQVLTQTASPVSAAVGGTVTINCQASQSVYDNNNLAWYQQKPGQPPKQLIYGASTLASGVSSRFKGSGSGTQFTLTISGVQCDDAATYYCLGEFSCSSADCFAFGGGTEVVVKGDPVAPTVLIFPPSADLVATGTVTIVCVANKYFPDVTVTWEVDGTTQTTGIENSKTPQNSADCTYNLSSTLTLTSTQYNSHKEYTCKVTQGTTSVVQSFNRGDC
modifications: oryctolagus cuniculus
- cytotoxicity with increasing dose [1]: increasing levels of cytotoxicity in correlation with increasing treatment concentrations
- melanoma cell growth/viability in culture [2]: inhibits melanoma cells in culture
- melanoma cell growth/viability in culture ([2]; listed as m28-RNLS): decreased the viability of all (total of 5) melanoma cell lines tested
- p21 positive cells ([3]; IHC): 178.1±11.4 positive cells/high power field
- decrease in expression of Ki67 vs IgG ([3]; mouse, in vivo): 2.5 fold
- cell cycle of Panc1 cells [4]: pre-G2 cell cycle arrest
- apoptosis of Panc1 cells ([4]; 4 days): caused apoptosis
- p-Y705-STAT3 in Panc1 [5]: long-lasting and sustained decrease; also recorded: inhibits STAT3 phosphorylation
